Laboratory results: patent US7033773B1, “Screening assays for G protein coupled receptor agonists and antagonists” (The General Hospital Corporation, priority 1997, dated 2006)
Where no end group is shown, it is not given here.

Assays:
human PTH/PTHrP receptor [1] = molecular target: T1, human PTH/PTHrP receptor (Homo sapiens, UniProt Q03431); experiment: Cellular phosphate uptake in LLC-PK1 cells expressing human PTHR; assay type: cell-based; design: transfected with a full-length human PTH/PTHrP receptor cDNA; expressed in transfected cells; conditions: HKRK B28 and HKRK B7 cells; peptides 1000 nM, 6 hr
T1 sequence (Q03431 27-593): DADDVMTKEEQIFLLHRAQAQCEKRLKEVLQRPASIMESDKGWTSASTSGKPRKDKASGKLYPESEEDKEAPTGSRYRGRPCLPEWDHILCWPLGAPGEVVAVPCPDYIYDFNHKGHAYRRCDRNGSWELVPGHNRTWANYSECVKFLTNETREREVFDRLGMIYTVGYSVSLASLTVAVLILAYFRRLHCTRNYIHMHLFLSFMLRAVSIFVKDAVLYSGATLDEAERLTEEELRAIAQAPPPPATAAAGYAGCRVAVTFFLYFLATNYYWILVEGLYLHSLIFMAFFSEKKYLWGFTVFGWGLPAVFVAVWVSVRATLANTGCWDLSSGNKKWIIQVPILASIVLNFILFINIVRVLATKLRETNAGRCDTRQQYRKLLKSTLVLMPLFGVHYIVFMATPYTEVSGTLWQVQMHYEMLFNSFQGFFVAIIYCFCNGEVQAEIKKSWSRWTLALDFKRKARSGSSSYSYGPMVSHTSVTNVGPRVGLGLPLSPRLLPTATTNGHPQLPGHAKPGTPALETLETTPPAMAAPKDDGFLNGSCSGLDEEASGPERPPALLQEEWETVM
Protocol: FIG. 8. Regulation of phosphate uptake by PTH in HKRK B7 and HKRK B28 cells. […] Results are expressed as percentage of basal, and each bar represents the mean±SEM of a representative experiment performed in triplicate. Similar results were obtained from at least 5 individual experiments. Cells were seeded into 24-well plates at a density of 2.5×10^5 cells/well and cultured for a further 2 days before study. Twenty four hours before assay, cells were refed with 0.5 ml of DMEM containing 0.1% BSA. The next day, cells were refed with serum-free medium (DMEM+0.1% BSA) containing drugs or peptides, and the incubations were continued at 37° C. under 5% CO2 in air for another 6 hr. Cells then were washed with prewarmed Buffer B without BSA and Na2HPO4 and then were incubated at 37° C. for 5 min in 0.25 ml of the same buffer containing [^32P]orthophosphate (4 uCi/ml) and 0.1 mM Na2HPO4. Phosphate uptake was arrested by adding 1 ml of ice-cold sodium-free “stop buffer” [10 mM HEPES (pH 7.4), 140 mM choline chloride, and 5 mM sodium arsenate], followed by two further washes with same buffer. The drained cell layer then was solubilized in 0.5 ml of Lysis Buffer, and cell-associated radioactivity was determined by Cerenkov counting, as previously described (Guo, J., et al., Endocrinology 136:3884-3891 (1995)).

human PTH/PTHrP receptor [2] = molecular target: T1, human PTH/PTHrP receptor; experiment: Cellular cAMP accumulation in LLC-PK1 cells expressing human PTHR; assay type: cell-based; design: transfected with a full-length human PTH/PTHrP receptor cDNA; expressed in transfected cells; conditions: HKRK B28 cells; for activation of AC (in words): similar in HKRK B7
Protocol: Cells were seeded into 24-well plates at a density of 2.5×10^5 cells/well and cultured for a further 2 days before study. The cells were rinsed once with 0.5 ml of ice-cold Buffer B [10 mM HEPES (pH 7.4), 130 mM NaCl, 5 mM KCl, 1.2 mM CaCl2, 1 mM MgCl2, 1.2 mM Na2HPO^4 5 mM glucose, and 0.1% heat-inactivated BSA] supplemented with 1 mM isobtylmethylxanthine (IBMX), and placed on ice. Treatments were added to each well in 0.25 ml of IBMX-supplemented Buffer B, after which the plates were incubated at 37° C. for 15 min. The buffer then was rapidly aspirated, the plates were rapidly transferred onto liquid nitrogen, and the frozen monolayers were subsequently thawed directly into 0.5 ml of 50 mM HCl. The extracted cAMP then was measured using a commercial RIA kit (Dupont-New England Nuclear, Boston, Mass.). Results were expressed as fold-basal, where basal levels ranged between 38 and 128 pmol/mg protein/15 min. The basal level of cAMP accumulation in native LLC-PK1 cells was not consistently altered in subclones that expressed wild type PTH/PTHrp receptors.
Maximal PTH-dependent cAMP accumulation was assessed in the human PTHR-transfected LLC-PK1 subclones following incubation for 15 min with a high concentration (1000 nM) of hPTH(1-34) (Table 1). As reported previously for LLC-PK1 cells that stably expressed rat PTHRs (Guo, J., et al., Endocrinology 136:3884-3891 (1995)), the maximal adenylyl cyclase response was relatively independent of the surface density of human PTHRs above a relatively low threshold (relative to that required for PLC activation—see below). In the case of the human PTHR, however, this threshold for saturation of maximal AC activation appeared to lie between 120,000 and 280,000 (Table 1), which is at least 6 to 10-fold higher than that previously observed for the rat PTHR (Guo, J., et al., Endocrinology 136:3884-3891 (1995)).

human PTH/PTHrP receptor [3] = molecular target: T1, human PTH/PTHrP receptor; experiment: Urokinase-type plasminogen activator (u-PA) secretion bioassay in LLC-PK1 cells expressing human PTHR; conditions: for secreted u-PA: peptide 1000 nM, 16 hr, mean±SEM
Protocol: Cells were seeded into 96-well plates at a density of 6×10^4 cells/well and used the following day. The cells were washed once with 0.2 ml and then refed with 0.1 ml of prewarmed DMEM containing 0.05% BSA. After adding each stimulator, plates were returned to the incubator at 37° C. for 16 h. Conditioned medium (5 ul) then was transferred from each well to a clean microplate. […] Activity was expressed in Ploug units/well, using purified human urokinase (Calbiochem) as a standard.
Cells were incubated with the indicated peptides (1000 nM) for 16 hr before measurement of secreted u-PA present in the medium, which was expressed as a percentage of the activity measured in vehicle-treated controls. Values shown are means±SEM of triplicate determinations.

human PTH/PTHrP receptor [4] = molecular target: T1, human PTH/PTHrP receptor; experiment: IP3 production (PLC activation) in LLC-PK1 cells expressing human PTHR; assay type: cell-based; design: transfected with a full-length human PTH/PTHrP receptor cDNA; expressed in transfected cells; conditions: for activation of PLC (in words): 1000 nM, HKRK B28 at 4 min and HKRK B7 at 30 min; for formation of IP3 (activation of phospholipase-C): peptide 1000 nM, mean±SEM
Protocol: Cells were seeded into 24-well plates at a density of 2.5×10^5 cells/well and cultured for a further 2 days before study. The cells were labeled at 37° C. for 16 h before assay with 3 uCi/ml of [^3H]myo-inositol in assay medium (serum- and inositol-free DMEM (GIBCO-BRL, Grand Island, N.Y.) supplemented with 0.1% BSA). After washing the cells with prewarmed assay medium containing 30 mM LiCl, they were incubated with 0.25 ml of assay medium containing 30 mM LiCl and stimulators (or vehicle) at 37° C. for various intervals(1-30 min). IP3 formation was arrested by aspiration and immediate addition of 0.5 ml of ice-cold 5% TCA. The acid extracts then were extracted twice with two volumes of water-saturated ether and adjusted to pH 7.4 with concentrated NaOH and Tris base (final concentration=10 mM) prior to chromatography on AG 1×8 anion-exchange columns (Bio-Rad, Richmond, Calif.), as previously described (Guo, J., et al., Endocrinology 136:3884-3891 (1995)). After eluting other fractions (free [^3H]myo-inositol, glycerophosphate inositol, IP1, and IP2), IP3 fractions were collected and their content of radioactivity was determined by liquid scintillation spectrometry (Beckman, model LS 6000IC).
HKRK B7 cells and HKRK B28 cells, previously loaded with [^3H]myo-inositol, were incubated with each peptide (1000 nM) for 30 min or 4 min, respectively. The formation of IP3 is expressed as a percentage of the amount measured in vehicle-treated controls. Values shown are means±SEM of triplicate determinations.

human PTH/PTHrP receptor [5] = molecular target: T1, human PTH/PTHrP receptor; experiment: Cytosolic free calcium (fura-2) in LLC-PK1 cells expressing human PTHR; conditions: 100 nM peptide; HKRK B7 cells
Protocol: Cytosolic free calcium was measured in fura 2AM-loaded confluent monolayers of cells.
Cytosolic free calcium was measured by dual fluorescence in cells loaded with the Ca^2+-sensitive intracellular probe fura-2. Cells were seeded onto glass coverslips at a density of 40,000-600,000/cm^2 and incubated for 2 days as described above. Coverslips were washed twice with PBS before loading in phosphate-free Buffer B containing 4 uM of fura-2/AM (Molecular Probes, Eugene, Oreg.) for 30 min at room temperature (22° C.). After washing twice with fura-free Buffer B, the coverslips were mounted in a cuvette containing 2 ml of phosphate-free Buffer B at 37° C. and the emission at 510 nm in response to alternating excitation at 340 and 380 nm was monitored using a ratiometric PTI Deltascan fluorescence spectrometer with excitation and emission bandwidths of 2 nm. After achieving a stable baseline, agonists were introduced by exchange into 2 ml of fresh buffer to which 10-20 ul of concentrated agonist stock (or vehicle alone) had been added. Peptide stocks were prepared in 0.1% trifluoroacetic acid, ionomycin and phorbol esters were dissolved in dimethyl sulfoxide and all other additives were prepared in water. Maximum and minimum fluorescence signals were obtained by exposure to modified buffers containing 1 uM ionomycin plus 20 mM calcium or 2 mM EGTA in the nominal absence of calcium, respectively, and autofluorescence was estimated from signals obtained in the presence of ionomycin plus 2.5 mM MnCl2.

[6] = HKRK B7 cells, 30 min stimulation
[7] = HKRK B28 cells, 4 min stimulation

hPTH(3-34) (SEIQLMHNLGKHLNSMERVEWLRKKLQDVHNF-NH2; UniProt P01270 34-65, looked up, fragment)
maximal activation of phosphate uptake (in words) (human PTH/PTHrP receptor [1]): inactive | concentrations at which AC was stimulated significantly (human PTH/PTHrP receptor [2]): ≥ 10 nM | cAMP response as % of the maximal response to hPTH(1-34) (human PTH/PTHrP receptor [2]; 1000 nM peptide): 16% | u-PA bioassay activity, % of maximal response to hPTH(1-34) (human PTH/PTHrP receptor [3]; HKRK B7 and HKRK B28 cells): 50-60% | secreted u-PA (human PTH/PTHrP receptor [3]; HKRK B7 cells): 57 ± 3 percentage of the activity measured in vehicle-treated controls | secreted u-PA (human PTH/PTHrP receptor [3]; HKRK B28 cells): 50 ± 1 percentage of the activity measured in vehicle-treated controls | activation of PLC (in words) (human PTH/PTHrP receptor [4]): neither hPTH(3-34) nor hPTH(7-34) activated PLC significantly | formation of IP3 (activation of phospholipase-C) (human PTH/PTHrP receptor [4]; [6]): 103 ± 1 percentage of vehicle-treated | formation of IP3 (activation of phospholipase-C) (human PTH/PTHrP receptor [4]; [7]): 85 ± 9 percentage of vehicle-treated | cytosolic free calcium transients (human PTH/PTHrP receptor [5]): neither hPTH(3-34) nor hPTH(7-34) (100 nM) induced this response

hPTH(7-34) (LMHNLGKHLNSMERVEWLRKKLQDVHNF; Parathyroid hormone; UniProt P01270 38-65, looked up, fragment)
maximal activation of phosphate uptake (in words) (human PTH/PTHrP receptor [1]): inactive | activation of AC (in words) (human PTH/PTHrP receptor [2]): failed to activate AC at all concentrations tested | u-PA bioassay activity (in words) (human PTH/PTHrP receptor [3]; HKRK B7 and HKRK B28 cells): inactive | secreted u-PA (human PTH/PTHrP receptor [3]; HKRK B7 cells): 1 ± 1 percentage of the activity measured in vehicle-treated controls | secreted u-PA (human PTH/PTHrP receptor [3]; HKRK B28 cells): 0 ± 2 percentage of the activity measured in vehicle-treated controls | activation of PLC (in words) (human PTH/PTHrP receptor [4]): neither hPTH(3-34) nor hPTH(7-34) activated PLC significantly | formation of IP3 (activation of phospholipase-C) (human PTH/PTHrP receptor [4]; [6]): 122 ± 7 percentage of vehicle-treated | formation of IP3 (activation of phospholipase-C) (human PTH/PTHrP receptor [4]; [7]): 92 ± 10 percentage of vehicle-treated | cytosolic free calcium transients (human PTH/PTHrP receptor [5]): neither hPTH(3-34) nor hPTH(7-34) (100 nM) induced this response

hPTHrp(1-36)
maximal activation of phosphate uptake (in words) (human PTH/PTHrP receptor [1]): comparable maximal activation of phosphate uptake | activation of AC (in words) (human PTH/PTHrP receptor [2]): indistinguishable from that to hPTH(1-34) | secreted u-PA (human PTH/PTHrP receptor [3]; HKRK B7 cells): 88 ± 5 percentage of the activity measured in vehicle-treated controls | secreted u-PA (human PTH/PTHrP receptor [3]; HKRK B28 cells): 97 ± 9 percentage of the activity measured in vehicle-treated controls | activation of PLC (in words) (human PTH/PTHrP receptor [4]): stimulated PLC equivalently to hPTH(1-34) | formation of IP3 (activation of phospholipase-C) (human PTH/PTHrP receptor [4]; [6]): 93 ± 6 percentage of vehicle-treated | formation of IP3 (activation of phospholipase-C) (human PTH/PTHrP receptor [4]; [7]): 160 ± 9 percentage of vehicle-treated
